Laboratory results published in patent publication US20210188980A1 (SHANGHAI EPIMAB BIOTHERAPEUTICS, published 2021).
Each block holds one binder with its values, some of them ahead of it.

Key:
[1] = target: T1, human LAG-3 expressed on cells (human, UniProt P18627 23-525); assay: cell-based or functional assay
T1 sequence (looked up): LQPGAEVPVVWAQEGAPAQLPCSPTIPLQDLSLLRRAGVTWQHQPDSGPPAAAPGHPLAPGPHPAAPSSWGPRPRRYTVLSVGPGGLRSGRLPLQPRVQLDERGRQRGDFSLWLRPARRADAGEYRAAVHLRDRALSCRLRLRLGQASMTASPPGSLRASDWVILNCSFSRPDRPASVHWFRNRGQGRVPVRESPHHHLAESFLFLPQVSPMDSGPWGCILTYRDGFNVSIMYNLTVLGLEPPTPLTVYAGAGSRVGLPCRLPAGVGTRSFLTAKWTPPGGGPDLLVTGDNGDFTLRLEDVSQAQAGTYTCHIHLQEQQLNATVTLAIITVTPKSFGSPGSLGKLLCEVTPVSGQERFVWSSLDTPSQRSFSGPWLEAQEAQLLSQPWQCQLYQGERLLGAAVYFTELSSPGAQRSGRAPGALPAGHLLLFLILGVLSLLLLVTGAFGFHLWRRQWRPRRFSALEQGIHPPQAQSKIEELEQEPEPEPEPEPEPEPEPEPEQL

[2] = target: T2, human PD-1 expressed on cells (human, UniProt Q15116 25-288); assay: cell-based or functional assay
T2 sequence (Q15116 25-288): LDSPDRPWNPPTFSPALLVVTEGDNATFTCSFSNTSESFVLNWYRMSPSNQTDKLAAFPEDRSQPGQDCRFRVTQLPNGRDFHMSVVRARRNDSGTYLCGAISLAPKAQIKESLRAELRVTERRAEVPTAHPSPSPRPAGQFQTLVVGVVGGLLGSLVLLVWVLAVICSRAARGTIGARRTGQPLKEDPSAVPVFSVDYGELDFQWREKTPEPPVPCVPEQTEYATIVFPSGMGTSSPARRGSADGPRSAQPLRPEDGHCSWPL

[3] = target: T3, recombinant human LAG-3-his protein (Novoprotein) (human, UniProt P18627 23-450); assay: BLI Octet, Ab on AHC sensor, huLAG-3-his; test group 2
T3 construct: Bought; also called huLAG-3; not shown: His tag
T3 sequence (looked up): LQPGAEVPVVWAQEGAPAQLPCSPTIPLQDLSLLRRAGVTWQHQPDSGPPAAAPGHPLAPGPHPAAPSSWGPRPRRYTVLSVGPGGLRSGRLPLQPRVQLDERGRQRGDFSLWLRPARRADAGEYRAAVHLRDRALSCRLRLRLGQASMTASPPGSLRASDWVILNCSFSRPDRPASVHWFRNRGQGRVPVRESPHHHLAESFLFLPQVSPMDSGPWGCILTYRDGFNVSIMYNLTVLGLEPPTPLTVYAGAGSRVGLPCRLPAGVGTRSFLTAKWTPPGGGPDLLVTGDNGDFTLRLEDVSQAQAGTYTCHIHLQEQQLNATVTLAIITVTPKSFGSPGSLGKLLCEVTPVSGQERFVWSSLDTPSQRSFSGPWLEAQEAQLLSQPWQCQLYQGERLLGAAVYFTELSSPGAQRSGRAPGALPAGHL
Method: All 9 humanized antibodies (Table 25) and a chimeric antibody having the parental murine VH and VL domains (mAb747c) were ranked by dissociation rate constant (koff). Briefly, antibodies were characterized for affinities and binding kinetics by Octet RED96 biolayer interferometry (Pall FortéBio LLC). Antibodies were captured by Anti-HIgG Fc Capture (AHC) Biosensors (Pall) at a concentration of 100 nM for 30 seconds. Sensors were then dipped into running buffer (1× pH7.2 PBS, 0.05% Tween 20, 0.1% BSA) for 60 seconds to check baseline. Binding was measured by dipping sensors into a single concentration of recombinant human LAG-3-his protein (Novoprotein). Dissociation was followed by dipping sensors into running buffer for 1200 seconds. The association and dissociation curves were fitted to a 1:1 Langmuir binding model using FortéBio Data Analysis software (Pall).
All 13 humanized antibodies (Table 39) and chimeric anti-LAG-3 antibody mAb747c having the parental murine VH and VL domains were ranked by dissociation rate constant (koff) in the same manner described in Example 9.1 supra. In each test group, the off-rates of antibodies were able to be compared with that of mAb747c. The off-rate ratios were calculated by the off-rate of antibody to that of mAb747c of its group and were compared all together. The lower the ratio was, the higher was the affinity of the antibody.

[4] = target: T1, human LAG-3 expressed on cells; assay: flow cytometry, biotinylated antibody + FITC-streptavidin, CD3 T cells; panel 'PBMC stimulation for 72h, untreated group' (anti-CD3 plus anti-CD28)
Method: (§1) To further evaluate the cell surface binding ability of FIT107-1-7b-1, the parental antibodies HumAb713-7, HumAb747V-67, and the bispecific FIT-Ig FIT107-1-7b-1 were biotinylated with biotin reagent (Sigma, Cat. No. S3259). For PBMC without stimulation, PBMCs were re-suspended at 5×10⁶ cells/mi. For PD-1 antibody (HumAb713-7) or LAG-3 antibody (HumAb747V-67) testing, 100 μg/ml of antibody were added and the reaction mixture allowed to incubate at 37° C. for 40 minutes separately, followed by two washes with FACS buffer. Then 100 μl, 5×10⁵ PBMC/well (untreated group, anti-PD-1 antibody treated group and anti-LAG-3 antibody treated group) were seeded into wells of 96-well plate. Biotinylated HumAb713-7, HumAb747V-67 and FIT107-1-7b-1 were added and incubated at 37° C. for 40 minutes (final working concentration starting from 100 nM with 3-fold serial dilution) followed by washing with FACS buffer twice. FITC-streptavidin and BV421-anti human-CD3 antibody were added and the assay plate incubated at 4° C. for 30 minutes, followed by washing with FACS buffer twice. The plate was analyzed with a Beckman Coulter CytoFlex flow cytometer, PBMC stimulation groups were stimulated with anti-CD3 plus anti-CD28 antibody for 72 hours, to induce PD-1 and LAG-3 expression on T cells. […]

[5] = target: T1, human LAG-3 expressed on cells; assay: flow cytometry, biotinylated antibody + FITC-streptavidin, CD3 T cells; panel 'PBMC stimulation for 72h, PD1 antibody treated group' (cells pre-treated with unlabelled HumAb713-7)
Method: as §1

[6] = target: T2, human PD-1 expressed on cells; assay: cell RBA FACS; competitor PD-L2/Fc
[7] = target: T2, human PD-1 expressed on cells; assay: flow cytometry, biotinylated antibody + FITC-streptavidin, CD3 T cells; panel 'PBMC without stimulation, untreated group'
Method: as §1

[8] = target: T2, human PD-1 expressed on cells; assay: flow cytometry, biotinylated antibody + FITC-streptavidin, CD3 T cells; panel 'PBMC stimulation for 72h, untreated group' (anti-CD3 plus anti-CD28)
Method: as §1

[9] = target: T2, human PD-1 expressed on cells; assay: cell RBA FACS; competitor PD-L1/Fc
[10] = target: T2, human PD-1 expressed on cells; assay: flow cytometry, biotinylated antibody + FITC-streptavidin, CD3 T cells; panel 'PBMC stimulation for 72h, Lag3 antibody treated group' (cells pre-treated with unlabelled HumAb747V-67)
Method: as §1

human PD-1-His protein [11] = target: T4, human PD-1-His protein (human, UniProt Q15116 25-167, limits assumed); assay: SPR Biacore
T4 construct: also called huPD-1; not shown: His tag
T4 sequence (Q15116 25-167 limits assumed): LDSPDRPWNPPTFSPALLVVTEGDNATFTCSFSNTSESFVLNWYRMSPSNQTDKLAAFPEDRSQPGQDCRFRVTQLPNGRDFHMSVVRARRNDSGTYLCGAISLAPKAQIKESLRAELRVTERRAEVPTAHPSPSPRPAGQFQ

[12] = target: T2, human PD-1 expressed on cells; assay: flow cytometry, biotinylated antibody + FITC-streptavidin, CD3 T cells; panel 'PBMC without stimulation, Lag3 antibody treated group' (cells pre-treated with unlabelled HumAb747V-67)
Method: as §1

Cyno PD-1-His = Cyno PD-1-His (cynomolgus, UniProt B0LAJ3 25-170); assay: BLI Octet, FIT-Ig captured, antigen analyte
Sequence of Cyno PD-1-His (B0LAJ3 entry or part of it limits assumed): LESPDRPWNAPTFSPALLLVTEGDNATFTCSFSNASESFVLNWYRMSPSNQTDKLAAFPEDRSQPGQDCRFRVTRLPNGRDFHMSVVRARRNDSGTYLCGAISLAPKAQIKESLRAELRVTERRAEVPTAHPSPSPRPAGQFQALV

Cyno LAG-3-His = Cyno LAG-3-His (cynomolgus); assay: BLI Octet, FIT-Ig captured, antigen analyte
human PD-1-His protein [13] = target: T4, human PD-1-His protein; assay: BLI Octet, FIT-Ig captured, antigen analyte
[14] = target: T3, recombinant human LAG-3-his protein …; assay: BLI Octet, FIT-Ig captured, antigen analyte
[15] = target: T1, human LAG-3 expressed on cells; assay: flow cytometry, biotinylated FIT-Ig + FITC-streptavidin, CD3 T cells; panel 'PBMC stimulation for 72h, PD1 antibody treated group'; PD-1 pre-blocked with unlabelled HumAb713-7, so the signal is laid to LAG-3
Method: as §1

MLR, IFN-γ production, EC50 [1]: 0.508 nM
MLR, IFN-γ production, EC50 [2]: 0.508 nM
B1: FIT107-1-2a (bispecific antibody, human IgG1, kappa, L234A L235A)
chain 1: not shown
chain 2: EVKLVESGGGLVKPGGSLKLSCAASGFTFSFYTMSWVRQTPEKRLEWVATISGGGRDTYYPDSVKGRFTISRDNAKNTLYLHMSSLRSEDTALYYCAGQGGNYLFAYWGQGTLVTVSAASTKGPSVFPLAPSSKSTSGGTAALGCLVKDYFPEPVTVSWNSGALTSGVHTFPAVLQSSGLYSLSSVVTVPSSSLGTQTYICNVNHKPSNTKVDKKVEPKSC
chain 3: DIQMTQSPSSLSASLGERVSLNCRASQEISGYLSWLQQKSDGTIKRLIYAASTLDSGVPKRFSGSRSGSDYSLTISSLESEDFADYYCLQYASYPLTFGAGTKLELKRTVAAPSVFIFPPSDEQLKSGTASVVCLLNNFYPREAKVQWKVDNALQSGNSQESVTEQDSKDSTYSLSSTLTLSKADYEKHKVYACEVTHQGLSSPVTKSFNRGEC

koff [3]: 0.000319 s⁻¹
off-rate ratio to that of mAb747c [3]: 47%
EC50 (read off the curve) [4]: ~1 nM
EC50 (read off the curve) [5]: 1 to 2 nM
B2: HumAb747V-67 (antibody, human IgG1, V domains shown)
VH: EVQLVQSGAEVKKPGATVKLSCTASGFNIKDDYMHWVKQRPEQGLDWIGWIVPENGNTVYASKFQGKATITADTSTNTAYLELSSLRSEDTAVYYCTVYGDYWGQGTTVTVSS
VL: DIQMTQSPSSLSASVGDRVTITCRASQEISGYLSWLQQKPGGAIKRLIYAASALDSGVPSRFSGSRSGSDYTLTISSLQPEDFADYYCLQYASYPLTFGQGTKLELK
notes: engineered HumAb747-60 variant; human IgG1/kappa constant domains

IC50 [6]: 1.4 nM
EC50 (read off the curve) [7]: ~3 nM
EC50 (read off the curve) [8]: ~2 nM
IC50 [9]: 0.76 nM
EC50 (read off the curve) [10]: ~3 nM
Kd (human PD-1-His protein [11]): 2.83 nM
koff (human PD-1-His protein [11]): 0.00035 s⁻¹
kon (human PD-1-His protein [11]): 124000 M⁻¹ s⁻¹
EC50 (read off the curve) [12]: ~3 nM
B3: HumAb713-7 (antibody, human IgG1, kappa, L234A L235A, V domains shown)
VH: EVQLVESGGGLVQPGGSLRLSCAASGFTSSDYGMHWVRQAPGKGLEWVSYISSGSYTIYYADTVKGRFTISRDNAKNSLYLQMNSLRDEDTAVYYCAKRGGSSHVNVMDYWGQGTTVTVSS
VL: DIQMTQSPSSLSASVGDRVTITCKASDHINNWLAWYQQKPGKAPKLLIYGATSLETGVPSRFSGSGSGTDYTFTISSLQPEDIATYYCQQYWSPPYTFGGGTKVEIKR
notes: humanized mAb713

Kd (Cyno PD-1-His): 3.61 nM
koff (Cyno PD-1-His): 0.000775 s⁻¹
kon (Cyno PD-1-His): 215000 M⁻¹ s⁻¹
Kd (Cyno LAG-3-His): 0.123 nM
koff (Cyno LAG-3-His): 6.36e-05 s⁻¹
kon (Cyno LAG-3-His): 519000 M⁻¹ s⁻¹
Kd (human PD-1-His protein [13]): 10.4 nM
koff (human PD-1-His protein [13]): 0.000935 s⁻¹
kon (human PD-1-His protein [13]): 89600 M⁻¹ s⁻¹
Kd [14]: 1.22 nM
koff [14]: 0.000243 s⁻¹
kon [14]: 200000 M⁻¹ s⁻¹
EC50 (read off the curve) [15]: ~1 nM
B4: FIT107-1-7b-1 (bispecific antibody, human IgG1, kappa, L234A L235A)
chain 1: not shown
chain 2: EVQLVQSGAEVKKPGATVKLSCTASGFNIKDDYMHWVKQRPEQGLDWIGWIVPENANTVYASKFQGKATITADTSTNTAYLELSSLRSEDTAVYYCTVYGDYWGQGTTVTVSSASTKGPSVFPLAPSSKSTSGGTAALGCLVKDYFPEPVTVSWNSGALTSGVHTFPAVLQSSGLYSLSSVVTVPSSSLGTQTYICNVNHKPSNTKVDKKVEPKSC
chain 3: not shown
notes: FIT-Ig hexamer; outer Fab anti-LAG-3 (HumAb747V-67 with VH G55A), inner Fab anti-PD-1 (HumAb713-7); also called FIT107-7b-1
